Source: publication PMC4521584, “MutS/MutL crystal structure reveals that the MutS sliding clamp loads MutL onto DNA”

Assays:
[1] = molecular target: MutSΔC800 D246C;MutL WT (Escherichia coli?;Escherichia coli?, UniProt P23909;P23367 1-800;1-615, D246C|); test: stopped-flow FRET and FP; 400 nM MutL mixed, 1 mM ATP; more binding at equilibrium than MutSΔC800 alone; SPR: 25 mM Hepes pH 7.5, 150 mM KCl, 5 mM MgCl2, 1 mM DTT, 0.05% Tween-20, 1 mM ATP (+20% glycerol for MutL-MutS assay); FP: same but 50 mM KCl, no ATP (+10% glycerol for full-length MutL); stopped-flow: 150 mM KCl, 10 uM ADP +/- 1 mM ATP, 15 C; FRET: 25 mM Hepes pH 7.2, 150 mM KCl, 5 mM MgCl2; conditions: protein: recombinant;recombinant; tags: ;His6; chain copies: 2;2; label: FRET: Alexa Fluor 594 on top T11 and Alexa Fluor 488 on bottom T10; FP: 5' TAMRA on top; blunt, one G:T mismatch
[2] = molecular target: T1, MutSΔC800 D246C (UniProt P23909 1-800, D246C); test: stopped-flow FRET and FP; 10 uM ADP, no ATP; binding with kinking; SPR: 25 mM Hepes pH 7.5, 150 mM KCl, 5 mM MgCl2, 1 mM DTT, 0.05% Tween-20, 1 mM ATP (+20% glycerol for MutL-MutS assay); FP: same but 50 mM KCl, no ATP (+10% glycerol for full-length MutL); stopped-flow: 150 mM KCl, 10 uM ADP +/- 1 mM ATP, 15 C; FRET: 25 mM Hepes pH 7.2, 150 mM KCl, 5 mM MgCl2; conditions: protein: recombinant; chain copies: 2; label: FRET: Alexa Fluor 594 on top T11 and Alexa Fluor 488 on bottom T10; FP: 5' TAMRA on top; blunt, one G:T mismatch
T1 sequence: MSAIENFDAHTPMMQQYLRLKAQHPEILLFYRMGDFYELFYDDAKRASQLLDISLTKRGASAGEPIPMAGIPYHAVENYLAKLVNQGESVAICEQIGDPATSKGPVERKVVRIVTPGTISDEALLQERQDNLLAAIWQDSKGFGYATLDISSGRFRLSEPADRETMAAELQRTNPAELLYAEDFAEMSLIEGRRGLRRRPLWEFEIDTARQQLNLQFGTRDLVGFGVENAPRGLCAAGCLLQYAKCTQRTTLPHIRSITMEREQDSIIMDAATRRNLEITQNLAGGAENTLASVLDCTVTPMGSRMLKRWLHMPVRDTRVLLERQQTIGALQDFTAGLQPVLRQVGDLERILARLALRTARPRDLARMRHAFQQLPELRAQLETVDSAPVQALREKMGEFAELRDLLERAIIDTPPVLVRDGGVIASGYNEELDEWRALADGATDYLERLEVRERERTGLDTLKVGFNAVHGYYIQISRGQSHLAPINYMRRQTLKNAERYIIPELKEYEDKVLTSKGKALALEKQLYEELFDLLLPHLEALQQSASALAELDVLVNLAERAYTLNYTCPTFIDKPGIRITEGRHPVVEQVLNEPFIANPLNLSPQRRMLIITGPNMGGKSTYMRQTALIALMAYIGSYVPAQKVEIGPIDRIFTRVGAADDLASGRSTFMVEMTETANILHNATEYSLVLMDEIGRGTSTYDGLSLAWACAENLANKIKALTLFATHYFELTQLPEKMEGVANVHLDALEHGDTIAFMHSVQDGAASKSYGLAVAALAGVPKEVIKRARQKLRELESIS

[3] = molecular target: T1, MutSΔC800 D246C; test: SPR; 1 mM ATP; fitted maximum response 104 RU; SPR: 25 mM Hepes pH 7.5, 150 mM KCl, 5 mM MgCl2, 1 mM DTT, 0.05% Tween-20, 1 mM ATP (+20% glycerol for MutL-MutS assay); FP: same but 50 mM KCl, no ATP (+10% glycerol for full-length MutL); stopped-flow: 150 mM KCl, 10 uM ADP +/- 1 mM ATP, 15 C; FRET: 25 mM Hepes pH 7.2, 150 mM KCl, 5 mM MgCl2; conditions: protein: recombinant; chain copies: 2; label: immobilized for SPR; blunt, one G:T mismatch
[4] = molecular target: MutLLN40 N131C R162E/R266E/R316E (UniProt P23367 1-349, N131C;R162E;R266E;R316E); test: fluorescence polarization; 50 mM KCl; binding completely abolished; SPR: 25 mM Hepes pH 7.5, 150 mM KCl, 5 mM MgCl2, 1 mM DTT, 0.05% Tween-20, 1 mM ATP (+20% glycerol for MutL-MutS assay); FP: same but 50 mM KCl, no ATP (+10% glycerol for full-length MutL); stopped-flow: 150 mM KCl, 10 uM ADP +/- 1 mM ATP, 15 C; FRET: 25 mM Hepes pH 7.2, 150 mM KCl, 5 mM MgCl2; conditions: protein: recombinant; tags: His; label: 5' TAMRA; blunt
[5] = molecular target: T2, MutS WT (UniProt P23909 1-853); test: SPR; 1 mM ATP, end-blocked with anti-fluorescein Fab; sliding clamp; SPR: 25 mM Hepes pH 7.5, 150 mM KCl, 5 mM MgCl2, 1 mM DTT, 0.05% Tween-20, 1 mM ATP (+20% glycerol for MutL-MutS assay); FP: same but 50 mM KCl, no ATP (+10% glycerol for full-length MutL); stopped-flow: 150 mM KCl, 10 uM ADP +/- 1 mM ATP, 15 C; FRET: 25 mM Hepes pH 7.2, 150 mM KCl, 5 mM MgCl2; conditions: protein: recombinant; chain copies: 2; label: biotin at one end (immobilized), fluorescein at the other; blunt, one G:T mismatch
T2 sequence: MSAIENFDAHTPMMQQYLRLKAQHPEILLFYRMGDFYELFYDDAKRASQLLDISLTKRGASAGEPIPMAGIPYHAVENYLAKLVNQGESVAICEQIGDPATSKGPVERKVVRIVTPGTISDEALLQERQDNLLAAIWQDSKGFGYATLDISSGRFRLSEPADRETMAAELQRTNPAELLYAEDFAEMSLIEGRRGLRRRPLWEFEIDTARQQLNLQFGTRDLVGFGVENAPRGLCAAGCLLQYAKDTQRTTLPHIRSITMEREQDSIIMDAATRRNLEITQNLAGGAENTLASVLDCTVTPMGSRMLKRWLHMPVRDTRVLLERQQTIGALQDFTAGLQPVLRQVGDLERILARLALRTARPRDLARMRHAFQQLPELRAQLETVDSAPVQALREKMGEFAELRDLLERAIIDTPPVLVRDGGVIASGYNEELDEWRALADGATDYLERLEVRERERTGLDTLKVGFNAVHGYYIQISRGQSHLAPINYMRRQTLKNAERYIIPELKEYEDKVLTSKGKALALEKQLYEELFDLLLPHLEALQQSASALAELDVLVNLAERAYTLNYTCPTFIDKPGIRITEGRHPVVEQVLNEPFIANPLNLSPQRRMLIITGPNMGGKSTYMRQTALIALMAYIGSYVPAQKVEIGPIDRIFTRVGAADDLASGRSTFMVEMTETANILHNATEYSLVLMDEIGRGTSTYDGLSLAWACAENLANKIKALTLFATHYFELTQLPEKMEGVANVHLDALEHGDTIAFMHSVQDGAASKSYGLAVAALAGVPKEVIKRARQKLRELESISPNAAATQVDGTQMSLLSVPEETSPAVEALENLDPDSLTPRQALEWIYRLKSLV

[6] = molecular target: MutS WT;MutL WT (Escherichia coli?;Escherichia coli?, UniProt P23909;P23367 1-853;1-615, |); test: SPR; 1 mM ATP, end-blocked; MutL binds preformed MutS clamp; SPR: 25 mM Hepes pH 7.5, 150 mM KCl, 5 mM MgCl2, 1 mM DTT, 0.05% Tween-20, 1 mM ATP (+20% glycerol for MutL-MutS assay); FP: same but 50 mM KCl, no ATP (+10% glycerol for full-length MutL); stopped-flow: 150 mM KCl, 10 uM ADP +/- 1 mM ATP, 15 C; FRET: 25 mM Hepes pH 7.2, 150 mM KCl, 5 mM MgCl2; conditions: protein: recombinant;recombinant; tags: ;His6; chain copies: 2;2; label: biotin at one end (immobilized), fluorescein at the other; blunt, one G:T mismatch
[7] = molecular target: T1, MutSΔC800 D246C; test: SPR; 1 mM ATP, 150 mM KCl; fast off-rate; SPR: 25 mM Hepes pH 7.5, 150 mM KCl, 5 mM MgCl2, 1 mM DTT, 0.05% Tween-20, 1 mM ATP (+20% glycerol for MutL-MutS assay); FP: same but 50 mM KCl, no ATP (+10% glycerol for full-length MutL); stopped-flow: 150 mM KCl, 10 uM ADP +/- 1 mM ATP, 15 C; FRET: 25 mM Hepes pH 7.2, 150 mM KCl, 5 mM MgCl2; conditions: protein: recombinant; chain copies: 2; label: biotin at one end (immobilized), fluorescein at the other; blunt, one G:T mismatch
[8] = molecular target: MutLLN40 N131C (UniProt P23367 1-349, N131C); test: SPR; 1 mM ATP, 150 mM KCl; SPR: 25 mM Hepes pH 7.5, 150 mM KCl, 5 mM MgCl2, 1 mM DTT, 0.05% Tween-20, 1 mM ATP (+20% glycerol for MutL-MutS assay); FP: same but 50 mM KCl, no ATP (+10% glycerol for full-length MutL); stopped-flow: 150 mM KCl, 10 uM ADP +/- 1 mM ATP, 15 C; FRET: 25 mM Hepes pH 7.2, 150 mM KCl, 5 mM MgCl2; conditions: protein: recombinant; tags: His; label: biotin at one end (immobilized), fluorescein at the other; blunt, one G:T mismatch

B1: 45-bp G:T mismatch DNA (dsDNA)
DNA 1: GTCATCCTCGTCTCAAGCTGCCAGGCACCAGTGTCAGCGTCCTAT
DNA 2: ATAGGACGCTGACACTGGTGCTTGGCAGCTTGAGACGAGGATGAC
- binding result [1]: binds
- binding result [2]: binds

B2: 41-bp G:T mismatch DNA (dsDNA)
DNA 1: ATAGGACGCTGACACTGGTGCTTGGCAGCTTCTAATTCGAT
DNA 2: ATCGAATTAGAAGCTGCCAGGCACCAGTGTCAGCGTCCTAT
- binding result [3]: binds

B3: 41-bp homoduplex, TAMRA (dsDNA)
DNA 1: ATAGGACGCTGACACTGGTGCTTGGCAGCTTCTAATTCGAT
DNA 2: ATCGAATTAGAAGCTGCCAAGCACCAGTGTCAGCGTCCTAT
- binding result [4]: no binding

B4: 100-bp G:T mismatch DNA (dsDNA)
DNA 1: AAACAGGCTTAGGCTGGAGCTGAAGCTTAGCTTAGGATCATCGAGGATCGAGCTCGGTGCAATTCAGCGGTACCCAATTCGCCCTATAGGCATCCAGGTT
DNA 2: AACCTGGATGCCTATAGGGCGAATTGGGTACCGCTGAATTGCACCGAGCTTGATCCTCGATGATCCTAAGCTAAGCTTCAGCTCCAGCCTAAGCCTGTTT
- binding result [5]: binds
- binding result [6]: binds
- binding result [7]: binds
- binding result [8]: no binding
